Two proteins from PMC4937785 (Plant and Cell Physiology, 2016) can be followed below.

Where “and” joins values, the source holds several entries; their conditions need not be identical. Equal values may be shown once.

Data set [1] deals with the molecule itself. As to the kind of experiment: native gel or EMSA. A general note: Mobility shift assays separate free from complexed probe on a gel.
Data set [2] concerns the molecule itself. As to the kind of experiment: SEC. (In general: Size exclusion chromatography separates by hydrodynamic size, large species first.)

B1: Flavodiiron protein Flv3 (sll0550) in Synechocystis sp. PCC 6803 (natural protein, UniProt Q55393 1-573, looked up)
chain: MFTTPLPPQKRLSTQTEAIAKNITAIRSLDWDRDRFDIEFGLQNGTTYNSYLIQADKVALVDSSHEKFRQLYLDLLQGLIDPQRIDYLIVSHTEPDHSGLVKDILQLNPRITVVATKVALQFLDNFVHQPFERIQVKSGDRLDLGQGHDLEFVSAPNLHWPDTMLTYDPATEILFTCDVFGMHYCSDAVFDIDLGKIAPDYQFYYDCLMGPNARSVLAAMKRMDNLGTISTVANGHGPLLRHNVGELLHRYRHWSESQSKAEKTVVVFYVADYGYGDRLSQAIAKGITKTGVGVDMVDLSSADPQEIQELVGHASGVVLGMPPLQANADLSTNFGAVLAAMQPKQVFGLYESYGGDDEPIDPLRTKFLDLGLREAFKVIKVKDTPSESTYQLCDESGTDLGQNLIQAAKIKQLKSLDSDLEKAIGRISGGLYIITAQKGEVKGAMLASWVSQASFNPPGFTVAVAKDRAIESLMQVGDRFVLNILEEGNYQILMKHFLKRFPPGADRFAGVKTQTASNGSPILTDALAYLECEVASRMECSDHWIVYSQVTNGRVAKAEGLTAVHHRKVGNYY
On to B1, for which the “stoichiometry N” value in data set [1] turned out to be 2.

B2: His-tagged Flv3 expressed in Escherichia coli (natural protein, Synechocystis sp. PCC 6803, UniProt Q55393 1-573, looked up)
chain: MFTTPLPPQKRLSTQTEAIAKNITAIRSLDWDRDRFDIEFGLQNGTTYNSYLIQADKVALVDSSHEKFRQLYLDLLQGLIDPQRIDYLIVSHTEPDHSGLVKDILQLNPRITVVATKVALQFLDNFVHQPFERIQVKSGDRLDLGQGHDLEFVSAPNLHWPDTMLTYDPATEILFTCDVFGMHYCSDAVFDIDLGKIAPDYQFYYDCLMGPNARSVLAAMKRMDNLGTISTVANGHGPLLRHNVGELLHRYRHWSESQSKAEKTVVVFYVADYGYGDRLSQAIAKGITKTGVGVDMVDLSSADPQEIQELVGHASGVVLGMPPLQANADLSTNFGAVLAAMQPKQVFGLYESYGGDDEPIDPLRTKFLDLGLREAFKVIKVKDTPSESTYQLCDESGTDLGQNLIQAAKIKQLKSLDSDLEKAIGRISGGLYIITAQKGEVKGAMLASWVSQASFNPPGFTVAVAKDRAIESLMQVGDRFVLNILEEGNYQILMKHFLKRFPPGADRFAGVKTQTASNGSPILTDALAYLECEVASRMECSDHWIVYSQVTNGRVAKAEGLTAVHHRKVGNYY
Take B2: the “stoichiometry N” value in data set [2] is 2 and 4.

By stoichiometry N is commonly meant the number of molecules, sites or subunits per partner or assembly.
